B1: Protein PIGBOS1 (Homo sapiens), A0A0B4J2F0 (parent)
chain: MFRRLTFAQLLFATVLGIAGGVYIFQPVFEQYAKDQKELKEKMQLVQESEEKKS
partner: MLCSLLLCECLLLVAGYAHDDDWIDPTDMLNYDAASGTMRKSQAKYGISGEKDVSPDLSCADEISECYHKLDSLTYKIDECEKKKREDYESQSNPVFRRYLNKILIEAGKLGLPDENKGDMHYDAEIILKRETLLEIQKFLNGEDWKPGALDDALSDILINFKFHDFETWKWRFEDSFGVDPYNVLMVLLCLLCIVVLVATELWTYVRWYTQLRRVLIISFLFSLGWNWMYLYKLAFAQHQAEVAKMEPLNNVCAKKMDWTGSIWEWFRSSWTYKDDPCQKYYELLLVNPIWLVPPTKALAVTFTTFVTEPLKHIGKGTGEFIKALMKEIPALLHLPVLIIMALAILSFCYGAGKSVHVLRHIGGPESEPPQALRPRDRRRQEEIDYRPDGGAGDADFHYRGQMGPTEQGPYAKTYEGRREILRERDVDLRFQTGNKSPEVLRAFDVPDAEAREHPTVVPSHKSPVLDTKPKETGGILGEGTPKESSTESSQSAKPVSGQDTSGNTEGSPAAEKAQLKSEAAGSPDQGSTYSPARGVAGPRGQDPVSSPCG

Variants of: B1
Settings: with clcc1_human CLCC1, Q96S66

| Variant | effect of a mutation on the interaction |
| --- | --- |
| MFRRLTFAQLLFATVLGIAGGVYIFQPVFEQYAAAAKELKEKMQLVQESEEKKS [K34A;D35A;Q36A] | decreasing interaction strength |
| MFRRLTFAQLLFATVLGIAGGVYIFQPVFEQYAKDQAAAKEKMQLVQESEEKKS [K37A;E38A;L39A] | with no effect |
| MFRRLTFAQLLFATVLGIAGGVYIFQPVFEQYAKDQKELKEKAAAVQESEEKKS [M43A;Q44A;L45A] | with no effect |
| MFRRLTFAQLLFATVLGIAGGVYIFQPVFEQYAKDQKELAAAMQLVQESEEKKS [K40A;E41A;K42A] | with no effect |
| MFRRLTFAQLLFATVLGIAGGVYIFQPVFEQYAKDQKELKEKMQLVQESEEAAA [K52A;K53A;S54A] | with no effect |
| MFRRLTFAQLLFATVLGIAGGVYIFQPVFAAAAKDQKELKEKMQLVQESEEKKS [E30A;Q31A;Y32A] | disrupting interaction strength |
| MFRRLTFAQLLFATVLGIAGGVYIFQPVFEQYAKDQKELKEKMQLVQEAAAKKS [S49A;E50A;E51A] | with no effect |
| MFRRLTFAQLLFATVLGIAGGVYIFQPVFEQYAKDQKELKEKMQLAAASEEKKS [V46A;Q47A;E48A] | with no effect |

Reference: IntAct's records for PubMed 31653868
